Tested on: PsPIWI-RE (Pseudomonas stutzeri DSM 4166)
Test: fluorescence polarization
Conditions: FP: 20 mM Tris-HCl pH 7.5, 250 mM NaCl, 5 mM MgCl2, 5 nM oligo, 37 C, 30 min, EMSA: 20 mM Tris-HCl pH 8.0, 150 mM NaCl, 2 mM DTT, 5 mM MgCl2, 1 uM oligo, 1-3 uM

Sequence | Kd (5' phosphate) [nM] | Kd [nM]
TGAGGTAGTAGGTTGTATAGT [5'P-DNA (5'T) 21-nt guide] | 24.6 | 
AGAGGUAGUAGGUUGUAUAGU [5'OH-RNA (5'A) 21-nt guide] |  | 88.4
GGAGGUAGUAGGUUGUAUAGU [5'OH-RNA (5'G) 21-nt guide] |  | 86.7
UGAGGUAGUAGGUUGUAUAGU [5'OH-RNA (5'U) 21-nt guide] |  | 86.5
TGAGGTAGTAGGTTGTATAGT [5'OH-DNA (5'T) 21-nt guide] |  | 19.7
UGAGGUAGUAGGUUGUAUAGU [5'P-RNA (5'U) 21-nt guide] | 64.4 | 
CGAGGUAGUAGGUUGUAUAGU [5'OH-RNA (5'C) 21-nt guide] |  | 152

Reference: publication PMC10991935
